From patent US5876710A, “Compounds and compositions for delivering active agents” (Emisphere Technologies Inc., priority 1997, dated 1999)

Set-up: species or system Rats
Conditions: rat, in vivo, po, 1 mg/kg

## interferon
  Mean peak serum interferon concentration: 1951±1857
